According to patent publication US20040248202A1, “Bacteriorhodopsin/G protein-coupled receptor chimeras” (Wisconsin Alumni Research Foundation, priority 1998, published 2004):

Experiments:
transducin = transducin (Homo sapiens, UniProt P11488); assay: GTPyS exchange assay in the presence of high affinity analog or random peptide; assay type: biochemical; conditions: for % Inhibition of GTPγS Uptake (Controlled for Peptide inhibition of Basal Exchange): 3C; for % Inhibition of GTPγS Uptake (Controlled for Peptide inhibition of Basal Exchange) / Specific counts (Lattice Form) / SPECIFIC COUNTS: (Lattice Form): 10 Minutes
Procedure: (§1) Chimeric or bacteriorhodopsin protein (1.7 uM) was incubated with 0.8 uM holotransducin with 10 nM ^35S radiolabeled GTPyS in buffer (20 mM Hepes (pH 7.5), 5 mM MgCl2, 1 mM DTT, 0.1 mM EDTA, and 20 mM NaCl). The reaction was incubated at 30° C. for 5, 10, 15 or 30 minutes. The reaction was terminated by transferring aliquots of the reaction mixture to nitrocellulose filters (0.45 um) prewetted with wash buffer (10 mM Tris (pH 7.5), 5 mM MgCl2, 100 mM NaC1, 0.1 mM EDTA) and placed on a vacuum manifold. The filters were then washed with 8 ml of wash buffer. The filters were then placed overnight in scintillation vials filled with 20 ml of scintillation cocktail. The activity of the vials was counted by a Liquid Scintillation Counter. For the BR-Rhodopsin loop 3 chimeras, in which the rhodopsin intracellular loop 3 replaced the native BR intracellular loop 3 and was fused from T157 on BR TM 5 to V167 on BR TM 6, activity was determined by an increased uptake of GTPS over basal exchange by transducin alone.
The high affinity analog has the sequence V-L-E-D-L-K-S-C-G-L-F-G (SEQ ID NO:43) (J. Biol. Chem. 271 pp. 361-366, 1996).
The random peptide consists of the sequence S-S-V-F-L-V-V-D-R-S-R (SEQ ID NO:44).
The addition of the high affinity analog at a final concentration of 8 uM gave the following results.
The second inhibition experiment used 50 uM of the high affinity analog.

holotransducin = holotransducin (Homo sapiens, UniProt P11488); assay: Effects of GDP concentration on the basal exchange of GTPγS by holotransducin; assay type: biochemical; conditions: 10 Minutes
Procedure: as §1
The next set of experiments was designed to measure the effects of GDP concentration on the basal exchange of GTPγS by holotransducin.

[1] = Basal Exchange (no chimera) + 8 uM peptide

holotransducin, sequence (P11488 2-350 limits assumed): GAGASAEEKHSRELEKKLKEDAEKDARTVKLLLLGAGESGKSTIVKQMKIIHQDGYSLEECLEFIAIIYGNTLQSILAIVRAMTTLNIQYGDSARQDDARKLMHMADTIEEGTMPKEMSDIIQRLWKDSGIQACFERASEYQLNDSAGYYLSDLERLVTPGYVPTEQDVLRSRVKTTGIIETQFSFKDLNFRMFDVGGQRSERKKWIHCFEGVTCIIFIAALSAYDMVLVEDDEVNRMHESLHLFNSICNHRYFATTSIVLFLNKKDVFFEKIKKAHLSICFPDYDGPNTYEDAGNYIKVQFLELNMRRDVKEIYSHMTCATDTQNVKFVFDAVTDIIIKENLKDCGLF
holotransducin, sequence (P62873 2-340 partner limits assumed): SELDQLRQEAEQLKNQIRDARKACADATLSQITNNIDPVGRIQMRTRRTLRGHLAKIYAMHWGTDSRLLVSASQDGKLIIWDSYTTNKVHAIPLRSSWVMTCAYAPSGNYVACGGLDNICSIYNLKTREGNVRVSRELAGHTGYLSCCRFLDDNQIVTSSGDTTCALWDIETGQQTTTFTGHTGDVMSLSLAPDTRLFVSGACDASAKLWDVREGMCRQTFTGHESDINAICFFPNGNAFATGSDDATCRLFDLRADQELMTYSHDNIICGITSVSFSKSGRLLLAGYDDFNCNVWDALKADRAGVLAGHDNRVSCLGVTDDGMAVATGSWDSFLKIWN
holotransducin, sequence (P63211 2-71 partner limits assumed): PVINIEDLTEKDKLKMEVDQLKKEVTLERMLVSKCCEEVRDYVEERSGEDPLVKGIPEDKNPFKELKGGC
transducin, sequence (P11488 2-350 limits assumed): as the sequence (P11488 2-350 limits assumed) above
transducin, sequence (P62873 2-340 partner limits assumed): as the sequence (P62873 2-340 partner limits assumed) above
transducin, sequence (P63211 2-71 partner limits assumed): as the sequence (P63211 2-71 partner limits assumed) above

Specific counts (Lattice Form) (holotransducin; Basal Exchange + 10 uM GDP) [counts] | Specific counts (Lattice Form) (holotransducin; Basal Exchange + 50 uM GDP) [counts] | Specific counts (Lattice Form) (holotransducin; Basal Exchange + 100 uM GDP) [counts] | Molecule | % Inhibition of GTPγS Uptake (Controlled for Peptide inhibition of Basal Exchange) (transducin; 8 uM peptide) [%] | % Inhibition of GTPγS Uptake (Controlled for Peptide inhibition of Basal Exchange) (transducin; 50 uM peptide) [%] | Specific counts (Lattice Form) (transducin; 3C + 8 uM peptide) [counts] | SPECIFIC COUNTS: (Lattice Form) (transducin; 3C + 50 uM peptide) [counts] | Specific counts (Lattice Form) (transducin; [1]) [counts] | SPECIFIC COUNTS: (Lattice Form) (transducin; Basal Exchange (no chimera) + 50 uM peptide) [counts] | Effect on chimera-enhanced GTP-GDP exchange (transducin; presence of peptide)
 |  |  | V-L-E-D-L-K-S-C-G-L-F-G (VLEDLKSCGLFG) [High affinity analog] | 23 | 70 | 42455 | 46892 | 23154 | 33888 | inhibited
 |  |  | S-S-V-F-L-V-V-D-R-S-R (SSVFLVVDRSR) [Random peptide] | 5.8 | 30 | 47516 | 35568 | 23868 |  | 
22885 | 11061 | 7502 | Nc1nc2c(ncn2[C@@H]2O[C@H](COP(=O)(O)OP(=O)(O)O)[C@@H](O)[C@H]2O)c(=O)[nH]1 [GDP] |  |  |  |  |  |  | 
